Experimental findings from IntAct's records for PubMed 23871208 are described below.

B1: Tyrosine-protein phosphatase non-receptor type 22 (Homo sapiens), Q9Y2R2 (parent)
chain: MDQREILQKFLDEAQSKKITKEEFANEFLKLKRQSTKYKADKTYPTTVAEKPKNIKKNRYKDILPYDYSRVELSLITSDEDSSYINANFIKGVYGPKAYIATQGPLSTTLLDFWRMIWEYSVLIIVMACMEYEMGKKKCERYWAEPGEMQLEFGPFSVSCEAEKRKSDYIIRTLKVKFNSETRTIYQFHYKNWPDHDVPSSIDPILELIWDVRCYQEDDSVPICIHCSAGCGRTGVICAIDYTWMLLKDGIIPENFSVFSLIREMRTQRPSLVQTQEQYELVYNAVLELFKRQMDVIRDKHSGTESQAKHCIPEKNHTLQADSYSPNLPKSTTKAAKMMNQQRTKMEIKESSSFDFRTSEISAKEELVLHPAKSSTSFDFLELNYSFDKNADTTMKWQTKAFPIVGEPLQKHQSLDLGSLLFEGCSNSKPVNAAGRYFNSKVPITRTKSTPFELIQQRETKEVDSKENFSYLESQPHDSCFVEMQAQKVMHVSSAELNYSLPYDSKHQIRNASNVKHHDSSALGVYSYIPLVENPYFSSWPPSGTSSKMSLDLPEKQDGTVFPSSLLPTSSTSLFSYYNSHDSLSLNSPTNISSLLNQESAVLATAPRIDDEIPPPLPVRTPESFIVVEEAGEFSPNVPKSLSSAVKVKIGTSLEWGGTSEPKKFDDSVILRPSKSVKLRSPKSELHQDRSSPPPPLPERTLESFFLADEDCMQAQSIETYSTSYPDTMENSTSSKQTLKTPGKSFTRSKSLKILRNMKKSICNSCPPNKPAESVQSNNSSSFLNFGFANRFSKPKGPRNPPPTWNI
partner: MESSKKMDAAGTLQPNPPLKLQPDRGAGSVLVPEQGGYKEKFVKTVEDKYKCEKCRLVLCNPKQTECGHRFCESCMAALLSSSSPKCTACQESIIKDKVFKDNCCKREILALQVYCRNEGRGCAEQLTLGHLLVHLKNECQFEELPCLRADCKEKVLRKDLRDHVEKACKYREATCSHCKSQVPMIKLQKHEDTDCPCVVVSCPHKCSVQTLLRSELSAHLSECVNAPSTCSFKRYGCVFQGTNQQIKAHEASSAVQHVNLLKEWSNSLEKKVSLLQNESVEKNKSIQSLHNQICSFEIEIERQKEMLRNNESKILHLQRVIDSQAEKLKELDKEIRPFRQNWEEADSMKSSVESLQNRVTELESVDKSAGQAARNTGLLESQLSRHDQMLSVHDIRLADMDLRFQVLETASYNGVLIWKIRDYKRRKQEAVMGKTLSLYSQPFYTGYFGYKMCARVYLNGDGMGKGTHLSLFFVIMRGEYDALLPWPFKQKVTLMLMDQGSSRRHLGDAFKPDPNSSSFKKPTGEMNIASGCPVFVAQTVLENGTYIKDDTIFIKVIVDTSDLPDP

In this assay the parent is B1. Conditions: with traf3_mouse Traf3, Q60803.
As to R620W, the “effect of a mutation on the interaction” value is “decreasing interaction strength”.
